{"source": "paper PMC11082181", "key": {"[1]": {"biological_target": "ZGGS15, anti-LAG-3/TIGIT bispecific IgG4 antibody (human)", "test": "BLI; ZGGS15 or BM (4 µg/mL) loaded to protein A probes; FcγRI 30 to 1 nM in solution; 150 s association, 200 s dissociation; BLI kinetics assay buffer; 25 °C, 1000 rpm"}, "[2]": {"biological_target": "Relatlimab analog, anti-LAG-3 benchmark (human)", "sequence (heavy, as listed by the source, chain 1 of 2)": "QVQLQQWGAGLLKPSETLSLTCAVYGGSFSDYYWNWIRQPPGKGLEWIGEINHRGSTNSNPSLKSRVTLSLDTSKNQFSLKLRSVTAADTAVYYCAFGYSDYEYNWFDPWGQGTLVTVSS", "sequence (light, as listed by the source, chain 2 of 2)": "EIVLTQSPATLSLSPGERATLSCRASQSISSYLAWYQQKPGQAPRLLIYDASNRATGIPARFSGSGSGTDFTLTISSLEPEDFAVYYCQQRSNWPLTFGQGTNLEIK", "test": "BLI; ZGGS15 or BM (4 µg/mL) loaded to protein A probes; FcγRI 30 to 1 nM in solution; 150 s association, 200 s dissociation; BLI kinetics assay buffer; 25 °C, 1000 rpm"}}, "data": [{"substance": "human Fc-gamma receptor I (FcγRI) (from UniProt P12314 16-374)", "values": [{"measurement": "Kd", "setting": "[1]", "value": 2.6, "unit": "nM"}, {"measurement": "Kd", "setting": "[2]", "value": 3, "unit": "nM"}]}]}
